Experimental data taken from patent publication US20110165161A1, “ANTI-EPCAM ANTIBODIES THAT INDUCE APOPTOSIS OF CANCER CELLS AND METHODS USING SAME” (priority 2009, published 2011).

Test system: COLO 205 colon cancer cells
Assay: Cytotoxicity of anti-EpCAM antibodies in combination with oxaliplatin in COLO 205
Assay type: cell-based, human
Settings: 24 hr
Description: Oxaliplatin, combined with infusional administration of 2 other chemotherapy drugs, 5-fluorouracil/leucovorin (5-FU/LV), is now considered as one of the as first-line treatments for people with advanced carcinoma of the colon or rectum (André et al. (2004) N Engl J Med 350(23):2343-2351). To test the cytotoxicity of anti-EpCAM antibodies in the presence of oxaliplatin, 1×10^5 COLO 205 cells were seeded to each well of a 96-well plate, and then 0.03, 0.3 and 3 μg/ml of anti-EpCAM or control (9E10) mAbs in combination with oxaliplatin at concentration of 0, 0.01, 0.1, and 1 μg/ml diluted in the medium were added into the cells. After a 24-hr incubation at 37° C., the cells were stained with 0.3 μl of FITC-conjugated Annexin V (Strong Biotech Corp. Cat. No. AVK250) in 50 μl Annexin V binding buffer (Strong Biotech Corp. Cat. No. AVK250) at RT for 20 min. After wash, the cells were then stained with 0.3 μl of propidium iodide in 200 μl Annexin V binding buffer. Annexin V and Propidium Iodide were used as a joint indicator for measuring cell death. The data were acquired with BD FACSCalibur based on an acquisition of 3,000-5,000 cells and analyzed with the Cell Quest software. The combined percentages of the Annexin V+/PI+, Annexin V+/PI− and Annexin V−/PI+populations were considered as dead cells.

[1] = mAb 0.03 μg/ml, oxaliplatin 0 μg/ml
[2] = mAb 0.3 μg/ml + oxaliplatin 1 μg/ml
[3] = mAb 0.3 μg/ml, oxaliplatin 0 μg/ml
[4] = mAb 3 μg/ml + oxaliplatin 0.01 μg/ml
[5] = mAb 3 μg/ml + oxaliplatin 1 μg/ml
[6] = mAb 3 μg/ml, oxaliplatin 0 μg/ml

Molecule	% of Annexin V + PI staining (untreated background subtracted) (mAb 0.03 μg/ml + oxaliplatin 0.1 μg/ml)	% of Annexin V + PI staining (untreated background subtracted) [1]	% of Annexin V + PI staining (untreated background subtracted) (mAb 0.3 μg/ml + oxaliplatin 0.01 μg/ml)	% of Annexin V + PI staining (untreated background subtracted) (mAb 0.3 μg/ml + oxaliplatin 0.1 μg/ml)	% of Annexin V + PI staining (untreated background subtracted) [2]	% of Annexin V + PI staining (untreated background subtracted) [3]	% of Annexin V + PI staining (untreated background subtracted) [4]	% of Annexin V + PI staining (untreated background subtracted) [5]	% of Annexin V + PI staining (untreated background subtracted) [6]	% of Annexin V + PI staining (untreated background subtracted) (mAb 0.03 μg/ml + oxaliplatin 0.01 μg/ml)	% of Annexin V + PI staining (untreated background subtracted) (mAb 0.03 μg/ml + oxaliplatin 1 μg/ml)	% of Annexin V + PI staining (untreated background subtracted) (mAb 3 μg/ml + oxaliplatin 0.1 μg/ml)
1G10: murine anti-human EpCAM monoclonal antibody (IgG1, K), hybridoma m290-1G10; VH SEQ ID NO:7, VL SEQ ID NO:9 (antibody, listed as Mus musculus, V domains shown) VH: QIQLVQSGPELKKPGETVKISCKASGYTFTNYGMNWVKQAPGKGFKWMGWINTYTGEPTYADDFKGRFAFSLETSASTAYLQINNLQNEDMATYFCARWGYDFDYWGQGTTLTVSS VL: QIVLTQSPAIMSSSPGEKVTMTCSASSSISYMNWYQQKPGTSPKRWIYDTSKLASGVPARFSGSGSGTSYSLTISSMEAEDAATYYCHQRSSYPYTFGGGTKLEIKR	2%	2%	4%	5%	10%	5%	38%	54%	46%	–	–	–
1F10: murine anti-human EpCAM monoclonal antibody (IgG1, λ1), hybridoma m338-1F10.3; VH SEQ ID NO:11, VL SEQ ID NO:13 (antibody, listed as Mus musculus, V domains shown) VH: EVKLLESGGGLVQPGGSLKLSCAASGFDFSRYWMSWVRQAPGKGLEWIGEINPDSSTMNYTPSLKDKFIISRDNAKNTLYLQMSKVRSEDTALYYCARGAYAMDYWGQGTSVTVSS VL: QAVVTQESALTTSPGETVTLTCRSSTGAVTTSNNANWVQEKPDHLFTGLIGATNNRAPGVPARFSGSLIGDKAALTITGAQTEDEAIYFCALWYINHWVFGGGTKLTVLG	–	−1%	–	–	22%	6%	52%	61%	54%	−1%	5%	57%
